± gives the uncertainty stated by the source.
Assay: self-splicing fitness, log relative to wild type (ln ratio); higher = more splicing; Tetrahymena group I intron in knt gene, E. coli kanamycin selection, DiMSum; sequences stand for … in CUCUCU…GGAGGGAAAAGUUAUCAGGCAUGCACCUGGUAGCUAGUCUUUAAACCAAUAGAUUGCAUCGGUUUAAAAGGCAAGACCGUCAAAUUGCGGGAAAGGGGUCAACAGCCGUUCAGUACCAAGUCUCAGGGGAAACUUUGAGAUGGCCUUGCAAAGGGUAUGGUAAUAAGCUGACGGACAUGGUCCUAACCACGCAGCCAAGUCCUAAGUCAACAGAUCUUCUGUUGAUAUGGAUGCAGUUCACAGACUAAAUGUCGGUCGGGGAAGAUGUAUUCUUCUCAUAAGAUAUAGUCGGACCUCUCCUUAAUGGGAGCUAGCGGAUGAAGUGAUGCAACACUGGAGCCGCUGGGAACUAAUUUGUAUGCGAAAGUAUAUUGAUUAGUUUUGGAGUACUCGUGGUCG
Method in brief: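 Six replicate transformations of E. coli BL21(DE3) with a pET-22b(+) library were grown overnight at 37°C or 30°C. The library randomised all eight P1ex-region intron nucleotides, the intron lying in the knt kanamycin-resistance gene, and plates were LB agar with or without 25 μg/mL kanamycin plus 100 μg/mL carbenicillin, 50 μM IPTG and 0.2% rhamnose. Pooled colonies were amplicon-sequenced on an Illumina HiSeq 2500, and fitness is the DiMSum error-weighted combination of wild-type-normalised replicate fold changes, kanamycin versus none.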

Sequence	self-splicing fitness (ln) (30 °C)	self-splicing fitness (ln) (37 °C)
AUGGAGCAAUAUUACGCGUC	-4.02 ± 0.18	-2.79 ± 0.15
AUGGAGCAAUAUUACGCUGA	-3.48 ± 0.24	-3.11 ± 0.35
AUGGAGCAAUAUUACGCUUU		-1.37 ± 0.46
AUGGAGCAAUAUUACGGAGU		-2.34 ± 0.27
AUGGAGCAAUAUUACGGCAA	-0.0716 ± 0.34	-3.02 ± 0.47
AUGGAGCAAUAUUACGGCGA		-1.68 ± 0.29
AUGGAGCAAUAUUACGGUCG	-2.63 ± 0.18	-0.839 ± 0.12
AUGGAGCAAUAUUACGUCAC	-3.23 ± 0.37	
AUGGAGCAAUAUUACGUCGA	-3.25 ± 0.3	-3.1 ± 0.43
AUGGAGCAAUAUUACGUCGU	-2.38 ± 0.15	-1.45 ± 0.18
AUGGAGCAAUAUUACGUGCA	-2.82 ± 0.21	-1.65 ± 0.16
AUGUAGCAAUAUUACGAAGU	-3.07 ± 0.23	-0.943 ± 0.18
AUGUAGCAAUAUUACGACAA	-0.201 ± 0.091	0.171 ± 0.11
AUGUAGCAAUAUUACGAUCA	-0.747 ± 0.22	-0.492 ± 0.18
AUGUAGCAAUAUUACGCAAG	-1.8 ± 0.14	-0.627 ± 0.14
AUGUAGCAAUAUUACGCCAU	-2.41 ± 0.19	-2.18 ± 0.24
AUGUAGCAAUAUUACGCGAC	-1.38 ± 0.17	-1.76 ± 0.36
AUGUAGCAAUAUUACGCGCC	-0.455 ± 0.077	-0.312 ± 0.096
AUGUAGCAAUAUUACGCUGC	-2.72 ± 0.41	-2.69 ± 0.48
AUGUAGCAAUAUUACGGAGU	-3.01 ± 0.23	-1.2 ± 0.18
AUGUAGCAAUAUUACGGCAA	0.118 ± 0.11	-0.419 ± 0.12
AUGUAGCAAUAUUACGGCCA	-0.669 ± 0.21	-0.586 ± 0.22
AUGUAGCAAUAUUACGGCCU	0.449 ± 0.097	0.248 ± 0.12
AUGUAGCAAUAUUACGGCGC	-0.704 ± 0.094	-0.408 ± 0.12
AUGUAGCAAUAUUACGGGUG	-3.85 ± 0.29	-2.54 ± 0.18

Sequence	self-splicing fitness (ln) (30 °C)	self-splicing fitness (ln) (37 °C)
AUGUAGCAAUAUUACGUAAG	-2.99 ± 0.2	-2.93 ± 0.2
AUGUAGCAAUAUUACGUACC	-0.724 ± 0.19	-1.14 ± 0.18
AUGUAGCAAUAUUACGUAGG	-3.93 ± 0.19	-1.43 ± 0.096
AUGUAGCAAUAUUACGUCUC		-2.4 ± 0.3
AUGUAGCAAUAUUACGUGAG	-0.927 ± 0.15	-0.0873 ± 0.21
AUGUAGCAAUAUUACGUUAC	-4.22 ± 0.39	-0.607 ± 0.2
AUGUAGCAAUAUUACGUUGG	-2.21 ± 0.12	-1.8 ± 0.17
AUUAAGCAAUAUUACGACAA	-0.618 ± 0.096	-0.264 ± 0.11
AUUAAGCAAUAUUACGACAG	-1.91 ± 0.16	-1.47 ± 0.19
AUUAAGCAAUAUUACGACUG	-2.34 ± 0.2	-1.64 ± 0.24
AUUAAGCAAUAUUACGAGGU	-2.83 ± 0.24	-2.1 ± 0.31
AUUAAGCAAUAUUACGAUGG	-3.96 ± 0.37	-1.94 ± 0.26
AUUAAGCAAUAUUACGCAAA	-1.78 ± 0.23	-1.32 ± 0.18
AUUAAGCAAUAUUACGCCAA	-0.955 ± 0.21	-1.59 ± 0.25
AUUAAGCAAUAUUACGCCGG	-0.824 ± 0.19	-0.226 ± 0.25
AUUAAGCAAUAUUACGCCUA	-0.154 ± 0.086	0.195 ± 0.11
AUUAAGCAAUAUUACGCGCC	-1.18 ± 0.15	-0.862 ± 0.2
AUUAAGCAAUAUUACGCGCU	-0.542 ± 0.11	-0.561 ± 0.15
AUUAAGCAAUAUUACGCUAA	-1.89 ± 0.17	-0.434 ± 0.13
AUUAAGCAAUAUUACGCUCC	-1.04 ± 0.23	-0.859 ± 0.29
AUUAAGCAAUAUUACGGAUA	-2.12 ± 0.28	-1.99 ± 0.2
AUUAAGCAAUAUUACGGCAC	-1 ± 0.086	-0.297 ± 0.11
AUUAAGCAAUAUUACGGCCA	-0.171 ± 0.12	-0.598 ± 0.12
AUUAAGCAAUAUUACGGCCC	-0.404 ± 0.27	-0.419 ± 0.27
AUUAAGCAAUAUUACGGCUC	-0.973 ± 0.16	0.244 ± 0.17

Sequence	self-splicing fitness (ln) (30 °C)	self-splicing fitness (ln) (37 °C)
AUUAAGCAAUAUUACGGGUG	-1.87 ± 0.13	-1.69 ± 0.16
AUUAAGCAAUAUUACGGUCA	-1.4 ± 0.14	-0.528 ± 0.14
AUUAAGCAAUAUUACGGUUU	-0.783 ± 0.07	0.254 ± 0.12
AUUAAGCAAUAUUACGUCAU	-1.51 ± 0.1	-0.717 ± 0.12
AUUCAGCAAUAUUACGAACC	-0.503 ± 0.16	-0.325 ± 0.2
AUUCAGCAAUAUUACGAACU	0.334 ± 0.13	0.543 ± 0.14
AUUCAGCAAUAUUACGACGG	-2.61 ± 0.19	-1.52 ± 0.17
AUUCAGCAAUAUUACGACUA	-0.646 ± 0.12	-0.106 ± 0.12
AUUCAGCAAUAUUACGAGCG	-1.08 ± 0.078	-0.441 ± 0.1
AUUCAGCAAUAUUACGAUAA	-0.72 ± 0.086	-0.295 ± 0.099
AUUCAGCAAUAUUACGAUAC	-1.17 ± 0.097	0.368 ± 0.11
AUUCAGCAAUAUUACGAUCA	-0.753 ± 0.088	-0.162 ± 0.11
AUUCAGCAAUAUUACGCCAC		-2.32 ± 0.42
AUUCAGCAAUAUUACGCCAG	-3.08 ± 0.22	-0.928 ± 0.22
AUUCAGCAAUAUUACGCCGA	0.0822 ± 0.39	-0.539 ± 0.39
AUUCAGCAAUAUUACGCGCA	-0.00177 ± 0.12	-0.315 ± 0.12
AUUCAGCAAUAUUACGCGCU	-2.15 ± 0.12	-0.796 ± 0.13
AUUCAGCAAUAUUACGCGGG	-2.38 ± 0.15	-0.332 ± 0.11
AUUCAGCAAUAUUACGCGUA	-1.16 ± 0.086	-0.145 ± 0.11
AUUCAGCAAUAUUACGCUCG	-1.11 ± 0.16	0.0381 ± 0.19
AUUCAGCAAUAUUACGGCCG	-1.09 ± 0.3	-0.945 ± 0.3
AUUCAGCAAUAUUACGGCCU	-1.03 ± 0.12	0.0851 ± 0.22
AUUCAGCAAUAUUACGGCGG	-1.77 ± 0.1	-1.77 ± 0.11
AUUCAGCAAUAUUACGGCUU	0.744 ± 0.12	-0.128 ± 0.13
AUUCAGCAAUAUUACGGGUC	-4.41 ± 0.46	-2.94 ± 0.24

Sequence	self-splicing fitness (ln) (30 °C)	self-splicing fitness (ln) (37 °C)
AUUCAGCAAUAUUACGGUAA	-0.935 ± 0.086	-0.659 ± 0.078
AUUCAGCAAUAUUACGGUCC	-1.46 ± 0.11	-0.22 ± 0.12
AUUCAGCAAUAUUACGGUUU	-0.00618 ± 0.064	-0.247 ± 0.072
AUUCAGCAAUAUUACGUAAU	-0.328 ± 0.079	0.348 ± 0.11
AUUCAGCAAUAUUACGUACG	-1.91 ± 0.087	-0.205 ± 0.1
AUUCAGCAAUAUUACGUCAA	-0.663 ± 0.11	-0.912 ± 0.11
AUUCAGCAAUAUUACGUCGU	-0.283 ± 0.071	0.553 ± 0.085
AUUCAGCAAUAUUACGUGAG	0.00589 ± 0.07	0.325 ± 0.12
AUUCAGCAAUAUUACGUUAC	-2.76 ± 0.17	-1.2 ± 0.12
AUUGAGCAAUAUUACGAAGU	-1.71 ± 0.29	-1.72 ± 0.42
AUUGAGCAAUAUUACGAGGA	-1.8 ± 0.32	-2.41 ± 0.29
AUUGAGCAAUAUUACGAUGA		-2.08 ± 0.35
AUUGAGCAAUAUUACGCAAG	-3.27 ± 0.19	-1.31 ± 0.18
AUUGAGCAAUAUUACGCACC	-1.98 ± 0.3	-1.84 ± 0.43
AUUGAGCAAUAUUACGCAGU	-2.95 ± 0.36	-2.11 ± 0.38
AUUGAGCAAUAUUACGCCAC	-1.44 ± 0.42	
AUUGAGCAAUAUUACGCCAU	-3.54 ± 0.24	-1.69 ± 0.19
AUUGAGCAAUAUUACGCUAA	-2.5 ± 0.16	-1.54 ± 0.16
AUUGAGCAAUAUUACGCUCG	-2.02 ± 0.33	-0.869 ± 0.22
AUUGAGCAAUAUUACGCUGC	-3.62 ± 0.47	-1.77 ± 0.41
AUUGAGCAAUAUUACGGAAA	-2.56 ± 0.3	-1.7 ± 0.25
AUUGAGCAAUAUUACGGAGA		-1.85 ± 0.47
AUUGAGCAAUAUUACGGGCG		-2.13 ± 0.34
